Data published in patent US20260216374.

System: Human POU5F1B (HA-tagged, overexpressed in SW480 cells)

ZDHHC-17 palmitoyl transferase, sequence (chain, as listed by the source): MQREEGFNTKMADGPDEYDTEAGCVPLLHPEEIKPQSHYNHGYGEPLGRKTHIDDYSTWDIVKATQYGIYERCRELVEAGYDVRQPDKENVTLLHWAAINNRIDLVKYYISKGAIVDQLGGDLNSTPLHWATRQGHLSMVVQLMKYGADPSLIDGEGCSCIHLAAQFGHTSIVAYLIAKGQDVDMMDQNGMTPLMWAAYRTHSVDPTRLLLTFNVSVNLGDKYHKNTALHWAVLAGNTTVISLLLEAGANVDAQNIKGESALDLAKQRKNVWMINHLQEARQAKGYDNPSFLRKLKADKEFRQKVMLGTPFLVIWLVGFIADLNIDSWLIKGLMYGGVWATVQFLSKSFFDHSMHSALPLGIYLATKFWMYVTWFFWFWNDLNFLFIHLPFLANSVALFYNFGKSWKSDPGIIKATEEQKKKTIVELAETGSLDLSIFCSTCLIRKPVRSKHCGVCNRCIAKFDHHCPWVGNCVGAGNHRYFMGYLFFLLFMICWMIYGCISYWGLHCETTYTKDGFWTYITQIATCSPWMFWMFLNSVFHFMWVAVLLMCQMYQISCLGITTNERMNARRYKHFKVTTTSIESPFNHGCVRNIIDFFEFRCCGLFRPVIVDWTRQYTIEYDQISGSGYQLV

ZDHHC-17 palmitoyl transferase
DRM association of POU5F1B upon ZDHHC-17 knockdown: POU5F1B dissociates from DRMs upon ZDHHC-17 knockdown
